Where a chain is given by its changes, count along the chain named. Values belong to the binder of their own block, whether it stands above or below them.
Key:
Conditions in all cases: both partners purified
[1] = target: T1, recombinant wild-type C1q (UniProt P02745 23-245; P02746 28-253; P02747 29-245); test: SPR; LAIR-1 Ig-like domain injected at increasing concentrations (4-128, 4-256 or 3.125-400 µM) over immobilized C1q, rC1q variants, C1qCLR_nc2 variants or C1qstem_nc2 (CM5, amine coupling); 25 °C; 50 mM Tris, 150 mM NaCl, 2 mM CaCl2, 0.05% surfactant P20, pH 7.5; KD from Req versus concentration, steady-state model
T1 construct: Complement C1q, A chain; Complement C1q, B chain; Complement C1q, C chain; also called rC1q WT; source: recombinant, produced and purified as reported in Bally et al. [20]; copies: + +
T1 sequence (P02745 23-245, chain 1 of 3): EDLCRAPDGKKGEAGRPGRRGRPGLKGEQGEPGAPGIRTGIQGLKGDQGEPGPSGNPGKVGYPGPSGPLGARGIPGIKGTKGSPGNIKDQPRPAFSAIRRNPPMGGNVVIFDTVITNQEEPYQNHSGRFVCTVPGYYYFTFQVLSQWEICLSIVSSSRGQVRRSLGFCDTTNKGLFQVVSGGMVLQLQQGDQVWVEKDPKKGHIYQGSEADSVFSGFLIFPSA
T1 sequence (P02746 28-253, chain 2 of 3): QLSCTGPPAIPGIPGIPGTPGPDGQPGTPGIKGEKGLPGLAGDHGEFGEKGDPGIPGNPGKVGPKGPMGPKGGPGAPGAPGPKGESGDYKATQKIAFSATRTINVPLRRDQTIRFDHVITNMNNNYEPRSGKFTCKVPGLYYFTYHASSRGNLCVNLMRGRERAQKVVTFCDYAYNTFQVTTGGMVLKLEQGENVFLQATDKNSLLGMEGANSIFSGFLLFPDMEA
T1 sequence (P02747 29-245, chain 3 of 3): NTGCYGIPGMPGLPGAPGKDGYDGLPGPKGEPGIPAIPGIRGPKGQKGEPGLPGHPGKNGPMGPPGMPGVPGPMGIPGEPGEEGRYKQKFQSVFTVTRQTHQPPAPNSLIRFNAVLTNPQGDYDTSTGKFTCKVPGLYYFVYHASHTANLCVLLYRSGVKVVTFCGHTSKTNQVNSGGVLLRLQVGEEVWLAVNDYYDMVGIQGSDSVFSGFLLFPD

[2] = target: T2, recombinant C1q mutant with an alanine substitution of LysA59, LysB61 and LysC58 (UniProt P02745 23-245; P02746 28-253; P02747 29-245, alanine substitution of LysA59 | alanine substitution of LysB61 | alanine …); test: as above
T2 construct: Complement C1q, A chain; Complement C1q, B chain; Complement C1q, C chain; also called rC1q ABC; source: recombinant, produced and purified as reported in Bally et al. [20]; copies: + +
T2 sequence (P02745 other isoform, or with tags, fused parts or gaps with the stated changes, chain 1 of 3): as the sequence (P02745 23-245, chain 1 of 3) above, with K59A counted along it
T2 sequence (P02746 other isoform, or with tags, fused parts or gaps with the stated changes, chain 2 of 3): as the sequence (P02746 28-253, chain 2 of 3) above, with K61A counted along it
T2 sequence (P02747 other isoform, or with tags, fused parts or gaps with the stated changes, chain 3 of 3): as the sequence (P02747 29-245, chain 3 of 3) above, with K58A counted along it

serum-derived C1q [3] = target: T3, serum-derived C1q (human, UniProt P02745 23-245); P02746 28-253; P02747 29-245, hydroxyprolines in the collagen-like region (shown as O in Figure 8A) | hydroxyprolines in the collagen-like region (shown as O in Figure 8A) | hydroxyprolines in the collagen-like region (shown as O …); test: as above
T3 construct: Complement C1q, A chain; Complement C1q, B chain; Complement C1q, C chain; 18 polypeptide chains, six A-B-C heterotrimers, 460 kDa; also called sC1q; source: purified from human serum; copies: 6 + 6 + 6
T3 sequence (P02745 23-245, chain 1 of 3): as the sequence (P02745 23-245, chain 1 of 3) above
T3 sequence (P02746 28-253, chain 2 of 3): as the sequence (P02746 28-253, chain 2 of 3) above
T3 sequence (P02747 29-245, chain 3 of 3): as the sequence (P02747 29-245, chain 3 of 3) above

serum-derived C1q [4] = target: T3, serum-derived C1q; test: SPR; LAIR-1 Ig-like domain (WT or mutant) injected at 10 µM over C1q or C1q fragment amine-coupled to a CM5 chip (sC1q 14,000 RU, sCLR 6000 RU, sGR 1500 RU); 25 °C; 50 mM Tris, 150 mM NaCl, 2 mM CaCl2, 0.05% surfactant P20, pH 7.5; association 180 s; mutants as percentage of the WT response at equilibrium
serum-derived C1q [5] = target: T3, serum-derived C1q; test: SPR; sC1q (1 nM), alone or preincubated with C1r2s2 at increasing molar ratios (1-5; 15 min at 25 °C), injected over immobilized LAIR-1 Ig-like domain (330 RU); 50 mM Tris, 150 mM NaCl, 2 mM CaCl2, 0.05% surfactant P20, pH 7.5; 25 °C; avidity effects

B1: LAIR-1 Ig-like domain, wild type (domain or fragment, human, UniProt Q6GTX8 22-122, looked up)
chain: QEEDLPRPSISAEPGTVIPLGSHVTFVCRGPVGVQTFRLERDSRSTYNDTEDVSQASPSESEARFRIDSVREGNAGLYRCIYYKPPKWSEQSDYLELLVKE
notes: Leukocyte associated immunoglobulin-like receptor 1 (LAIR-1; CD305), C2-type Ig-like domain, residues 22 to 122; pET28a construct; intact disulfide bond by ESI-MS; also called LAIR-1 WT; soluble LAIR-1 Ig-like domain
Kd [1]: 99.5 µM
Kd [2]: 132 µM
Kd (serum-derived C1q [3]): 112 µM

B3: LAIR-1 Ig-like domain E72K (domain or fragment, human, UniProt Q6GTX8 22-122, looked up)
chain: B1 chain with E51K
notes: LAIR-1 (CD305), C2-type Ig-like domain, residues 22 to 122
binding result (serum-derived C1q [4]): binds

B5: LAIR-1 Ig-like domain E111K (domain or fragment, human, UniProt Q6GTX8 22-122, looked up)
chain: B1 chain with E90K
notes: as for B3
binding result (serum-derived C1q [4]): binds

More lines, now with the values ahead:

binding result (serum-derived C1q [4]): binds
B2: LAIR-1 Ig-like domain I102L (domain or fragment, human, UniProt Q6GTX8 22-122, looked up)
chain: B1 chain with I81L
notes: as for B3

binding result (serum-derived C1q [4]): binds
B4: LAIR-1 Ig-like domain P107R (domain or fragment, human, UniProt Q6GTX8 22-122, looked up)
chain: B1 chain with P86R
notes: as for B3

binding result (serum-derived C1q [5]): binds
B6: recombinant C1r2s2 tetramer (C1s, C1rS637A) (complex)
chain 1: SIPIPQKLFGEVTSPLFPKPYPNNFETTTVITVPTGYRVKLVFQQFDLEPSEGCFYDYVKISADKKSLGRFCGQLGSPLGNPPGKKEFMSQGNKMLLTFHTDFSNEENGTIMFYKGFLAYYQAVDLDECASRSKSGEEDPQPQCQHLCHNYVGGYFCSCRPGYELQEDTHSCQAECSSELYTEASGYISSLEYPRSYPPDLRCNYSIRVERGLTLHLKFLEPFDIDDHQQVHCPYDQLQIYANGKNIGEFCGKQRPPDLDTSSNAVDLLFFTDESGDSRGWKLRYTTEIIKCPQPKTLDEFTIIQNLQPQYQFRDYFIATCKQGYQLIEGNQVLHSFTAVCQDDGTWHRAMPRCKIKDCGQPRNLPNGDFRYTTTMGVNTYKARIQYYCHEPYYKMQTRAGSRESEQGVYTCTAQGIWKNEQKGEKIPRCLPVCGKPVNPVEQRQRIIGGQKAKMGNFPWQVFTNIHGRGGGALLGDRWILTAAHTLYPKEHEAQSNASLDVFLGHTNVEELMKLGNHPIRRVSVHPDYRQDESYNFEGDIALLELENSVTLGPNLLPICLPDNDTFYDLGLMGYVSGFGVMEEKIAHDLRFVRLPVANPQACENWLRGKNRMDVFSQNMFCAGHPSLKQDACQGDAGGVFAVRDPNTDRWVATGIVSWGIGCSRGYGFYTKVLNYVDWIKKEMEEED
chain 2: EPTMYGEILSPNYPQAYPSEVEKSWDIEVPEGYGIHLYFTHLDIELSENCAYDSVQIISGDTEEGRLCGQRSSNNPHSPIVEEFQVPYNKLQVIFKSDFSNEERFTGFAAYYVATDINECTDFVDVPCSHFCNNFIGGYFCSCPPEYFLHDDMKNCGVNCSGDVFTALIGEIASPNYPKPYPENSRCEYQIRLEKGFQVVVTLRREDFDVEAADSAGNCLDSLVFVAGDRQFGPYCGHGFPGPLNIETKSNALDIIFQTDLTGQKKGWKLRYHGDPMPCPKEDTPNSVWEPAKAKYVFRDVVQITCLDGFEVVEGRVGATSFYSTCQSNGKWSNSKLKCQPVDCGIPESIENGKVEDPESTLFGSVIRYTCEEPYYYMENGGGGEYHCAGNGSWVNEVLGPELPKCVPVCGVPREPFEEKQRIIGGSDADIKNFPWQVFFDNPWAGGALINEYWVLTAAHVVEGNREPTMYVGSTSVQTSRLAKSKMLTPEHVFIHPGWKLLEVPEGRTNFDNDIALVRLKDPVKMGPTVSPICLPGTSSDYNLMDGDLGLISGWGRTEKRDRAVRLKAARLPVAPLRKCKEVKVEKPTADAEAYVFTPNMICAGGEKGMDSCKGDSGGAFAVQDPNDKTKFYAAGLVSWGPQCGTYGLYTRVKNYVDWIMKTMQENSTPRED
notes: Complement C1r protease; Complement C1s protease; also called C1r2s2 proteases tetramer; source: recombinant, purified according to published procedures [42]; copies: 2 + 2
